{
  "source": "the nanobody polyreactivity screen of Harvey et al. (2022)",
  "data": [
    {"assay": "yeast display, Sf9 membrane polyspecificity reagent, FACS + sequencing; frameworks hold sequencing errors", "outline": "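Nanobodies came from a synthetic yeast display library in Saccharomyces cerevisiae BJ5465, induced with galactose for 36–48 hours and stained for 1 hour at 4 °C with 10% biotinylated, detergent-solubilized Sf9 membrane reagent. Cells were enriched on streptavidin microbeads and then FACS-sorted, with low and high (top ~1%) gates set on anti-HA fluorescence for expression and streptavidin fluorescence for reagent binding. Each polyreactivity label reflects the gate a clone came from. Genes were amplified by colony PCR, sequenced by MiSeq 2 × 250 and filtered by CDR length.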", "values": [
      {"sequence": "QVQLVESGGGLVQAGGSLRLSCAASGGIFWVNAMGWYRQAPGKERELVAAISWSDDNTYYADSVKGRFTISRDNAKNTVYLQMNSLKPEDTAVYYCAKDFYDYGSFYWYEYWGQGTQVTVSS", "polyreactivity (PSR sort gate)": "high polyreactivity"},
      {"sequence": "QVQLVESGGGLVQAGGSLRLSCAASGGIFYGYAMGWYRQAPGKERELVAAISDSGGSTYYADSVKGRFTNSRDNAKYTGYVQMNSLKPEVTAVYYCATDAPVGGYVSEGDYWGQGTQVTVSS", "polyreactivity (PSR sort gate)": "low polyreactivity"},
      {"sequence": "QVQLVESGGGLVQAGGSLRLSCAASGGIFYPNVKGWYRQAPGKEREFVAAISSSSGSTYADSVKGRFTISRDNAKNTVYLQMNSLKPDDTAVFYCAAEENWWGIWVRYDYWVQGTQVTVSS", "polyreactivity (PSR sort gate)": "low polyreactivity"},
      {"sequence": "QVQLVESGGGLVQAGGSLRLSCAASGGIFYPYAMGWYRQAPGKERELVASIDVSDGSTYYADSVKGRFTISRDNAKNTVYLQMNSLKPEDTAVYYCAADRYSKAIDFEGDYWGQGTQVTVSS", "polyreactivity (PSR sort gate)": "low polyreactivity"},
      {"sequence": "QVQLVESGGGLVQAGGSLRLSCAASGGIFYRYAMGWYRQAPGKEREFVASIDVSGGSTHYADSVKGRFTISRDNAKNTVDLQMNSLKPEDTAVHYCAARVYWRSSRYYYWGHGTQVTVSS", "polyreactivity (PSR sort gate)": "high polyreactivity"},
      {"sequence": "QVQLVESGGGLVQAGGSLRLSCAASGGIFYSYAMGWYRQAPGKERELVAAISGRGGSTYYADSVKGRFTISRDNAKNTVYLQMNSLKPEDTAVYYCNALGSQRYDYWGQGTQVTVSS", "polyreactivity (PSR sort gate)": "high polyreactivity"},
      {"sequence": "QVQLVESGGGLVQAGGSLRLSCAASGGIFYYNAMGWYRQAPGKERELLAAITFSGGGTYYADSVKGRFTISRDNAKNTVYFQMNSLKPEDTAVNYCAAKFYRYAWFLGYDYWGQGTQVTVSS", "polyreactivity (PSR sort gate)": "high polyreactivity"},
      {"sequence": "QVQLVESGGGLVQAGGSLRLSCAASGGIFYYYTMGWYRQAPGKERELVAVISSSGSTYYADSVKGRFTISRDNAKNTVYLQMNSLKPEDTAVYYCNALGWYGDYDYWGQGTQVTVSS", "polyreactivity (PSR sort gate)": "low polyreactivity"},
      {"sequence": "QVQLVESGGGLVQAGGSLRLSCAASGGIISMYDIGWYRQAQGKERQLVAAISQSGGSTYYADYVKGRFTISRDNAKNTVYLQMNSLNPEVTGVYYCAADLYLTLIGFIFTGEEYWGQGTQGTVSS", "polyreactivity (PSR sort gate)": "low polyreactivity"},
      {"sequence": "QVQLVESGGGLVQAGGSLRLSCAASGGILDTYAMGWDRQAPGKERELVAAITSGGNTNYADSVKGRFTISRDNAKNTFYLQMNSLKPEDTAVYFCNVVSWYYFFRPWEYDYWGQGTQVTVSS", "polyreactivity (PSR sort gate)": "low polyreactivity"},
      {"sequence": "QVQLVESGGGLVQAGGSLRLSCAASGGILRDYAMGWSRQAPGKERELVAAISRGGRTNYADSVKGRFTISRDYSKNTVYLQLNSLKPEDTAVYYCAKRYARGENDYWGQGTQVNVSS", "polyreactivity (PSR sort gate)": "high polyreactivity"},
      {"sequence": "QVQLVESGGGLVQAGGSLRLSCAASGGISLYYVMGWYRQAPGKERELVADISADDSTNYADSVKGRFTISRDNAKNTVYLQMNSLKPEDTAVYYCAAVPGLFYLPYDYWGQGTQVTVSS", "polyreactivity (PSR sort gate)": "low polyreactivity"},
      {"sequence": "QVQLVESGGGLVQAGGSLRLSCAASGGISMDNVMGWYRQAPGKERELVAAISKSGGRTFYADSVKGRFTISRDNAKNTVYLQMNSLKPEDTAVYYCAKLYKSKPYWYEHEYWGQGTQVTVSS", "polyreactivity (PSR sort gate)": "high polyreactivity"},
      {"sequence": "QVQLVESGGGLVQAGGSLRLSCAASGGISYRYAMGWYRQAPGKERELVARISRGTGTHYADSVKGRFTISRDNAKNTVYLQMNSLTPEDTAVYYCAAESYRGYYLSLNYWGQGTQVTVSS", "polyreactivity (PSR sort gate)": "high polyreactivity"},
      {"sequence": "QVQLVESGGGLVQAGGSLRLSCAASGGIVSINAMGWYRQAPGKERELVAAIRWNSGRTYYADSVKGRFTISRDNAKNTVYIQMNSLKPEDTAVYYCAVRDYISWEDYYWGQGTQVTVSS", "polyreactivity (PSR sort gate)": "high polyreactivity"},
      {"sequence": "QVQLVESGGGLVQAGGSLRLSCAASGGIYLDYAMGWYRQAPGKERELVADINSGADTSYADSVKGRFTISRDNAKNTVYLQMNSLKPEDTAVYYCADDIYVFNGQVYSYGYGYWGQGTQVTVSS", "polyreactivity (PSR sort gate)": "low polyreactivity"},
      {"sequence": "QVQLVESGGGLVQAGGSLRLSCAASGGIYYYAMGWDRQAPGKERELVAAISSGGGNTNYADSVKGRFTISRDNAKNTVYLQMNSLKPVDTAVYYCAAEHPVTYRTSKFDYWGQGTQVTVSS", "polyreactivity (PSR sort gate)": "low polyreactivity"},
      {"sequence": "QVQLVESGGGLVQAGGSLRLSCAASGGIYYYAMGWYRPAPGKERELVSAISSGGGNTNYADSVKGRFTISRDNAKNTVYLQMISLKPEDTAVYYCYADRAVVLSTTVWGEYDYWGQGTQVNVSS", "polyreactivity (PSR sort gate)": "low polyreactivity"},
      {"sequence": "QVQLVESGGGLVQAGGSLRLSCAASGGIYYYAMGWYRQAPGKERELVAAISSGGGNTNYADSVKGRFTLSRDNAKNTVYLQMNSLKPEDTAVYYCATDGFIPTYSYTEIGYDYWGQGTQVTVSS", "polyreactivity (PSR sort gate)": "low polyreactivity"},
      {"sequence": "QVQLVESGGGLVQAGGSLRLSCAASGGLFIRYGMGWYRPAPGKERELVAGIDSGGGTNYADSVKGRFTISRDNAKNTVYLQMNSLKPEDTAVYYCARRQGYGFLYGRPYGYWGQGTQVTVSS", "polyreactivity (PSR sort gate)": "low polyreactivity"},
      {"sequence": "QVQLVESGGGLVQAGGSLRLSCAASGGMGWYRQAPGKERELVATISSVGSTNYADSVKGRFTISRDNAKNTVYLQMNSLKPEDTAVYYCNATGVQYFLYGYWGQGTQVTVSS", "polyreactivity (PSR sort gate)": "low polyreactivity"},
      {"sequence": "QVQLVESGGGLVQAGGSLRLSCAASGGNFKQYAMGWYRQAPGKERELVAAISRRGGSTYYADSVKGRFTISRDNAKNTVYLQMNSLKPEDTAVYYCAAPGPTQSTQRGGYWGQGTQVTVSS", "polyreactivity (PSR sort gate)": "high polyreactivity"},
      {"sequence": "QVQLVESGGGLVQAGGSLRLSCAASGGPFKRNAMGWSRQAPGKERELVAAISTSGATTYYADSVKGRFTISRDTAKNTVYLQMNSLKPEDTAVYYCAARIRGYVYKGMNYWGQGTQVTVSS", "polyreactivity (PSR sort gate)": "high polyreactivity"},
      {"sequence": "QVQLVESGGGLVQAGGSLRLSCAASGGPFTYYTMGCYRQAPGKERELVAAISTGGRTYYADSVKGRFTISRDNAKNTVYLQMNCLKAEATAVYYCYPLYDETDVLGEFDYWGQGTQVTVSS", "polyreactivity (PSR sort gate)": "low polyreactivity"},
      {"sequence": "QVQLVESGGGLVQAGGSLRLSCAASGGPFWYYAMGWYRQAPGKERELVAAITRGGSTSYADSVKGRFTISRDNAKKTVYLQMNSLKPEDTAVYYCNARPYSSYWRYNYWGQGTQVTVSS", "polyreactivity (PSR sort gate)": "high polyreactivity"},
      {"sequence": "QVQLVESGGGLVQAGGSLRLSCAASGGTCSFYTMGWYRQAPGKERELVAAISRSGGRTYYADSVKGRFTISRDNAQNTVYLQMNSLKPEDTAVYYCAAERFSNIYTTMGYWGQGTQVTVSS", "polyreactivity (PSR sort gate)": "high polyreactivity"},
      {"sequence": "QVQLVESGGGLVQAGGSLRLSCAASGGTFAANDMGWYRQAPGKEREFVAAIDWSGGSTYYADSVKGRFTISRDNAKNTVYLQMNSLKPVDTAVYYCNAGPAVRSAYSTPYYDYWGQGTQVTVSS", "polyreactivity (PSR sort gate)": "low polyreactivity"},
      {"sequence": "QVQLVESGGGLVQAGGSLRLSCAASGGTFAFNAMGWYRQAPGKERELVATIRYSGGSTYADSVKGRFTISRDNAKNTVYLQMNSLKPEDTAVYYCAADVIYWFSGEYDYWGQGTQVTVSS", "polyreactivity (PSR sort gate)": "low polyreactivity"},
      {"sequence": "QVQLVESGGGLVQAGGSLRLSCAASGGTFAVNAMGWYRQAPGKEREFVAAISSRGSTSYADSVKGRFTISRDNAKNTVYLQMNSLKPEDTAVYYCAKRQGYWFDYWGQGTQVTVSS", "polyreactivity (PSR sort gate)": "high polyreactivity"},
      {"sequence": "QVQLVESGGGLVQAGGSLRLSCAASGGTFCRNVMGWYRQAPGKERELVAAISRRGSSTYYADSVKGRFTISRDNAKNTVYLQMNSLKPEDTAVYYCARDQYTGADEAGDDYWGQGTQVTVSS", "polyreactivity (PSR sort gate)": "high polyreactivity"},
      {"sequence": "QVQLVESGGGLVQAGGSLRLSCAASGGTFDYNAMGWYRQAPGKERELVAAITSGASTYYADSVKGRFTISRDNAKNTVYLQMNSLKPEDTAVYYCAKGPTPGYDYWGQGTQVTVSS", "polyreactivity (PSR sort gate)": "low polyreactivity"},
      {"sequence": "QVQLVESGGGLVQAGGSLRLSCAASGGTFDYYAMGWYRQAPGKERELVAAITRGSTNYADSVKGRFTISRDNAKNTVYFQMNSLKPEDTAVYYCAARGRFVTPQPSYDYWGQGTQVTVSS", "polyreactivity (PSR sort gate)": "high polyreactivity"},
      {"sequence": "QVQLVESGGGLVQAGGSLRLSCAASGGTFEYNAMGWYRQAPGKERELVAAISKSGGRTYFADSVKGRFTISRDNAMNTVYLQMNSLKPEDTAVYYCAKRYVWGQGTQVTVSS", "polyreactivity (PSR sort gate)": "high polyreactivity"},
      {"sequence": "QVQLVESGGGLVQAGGSLRLSCAASGGTFEYYAMGWDRQAPGKESELVAGITGGGVSTYYADSVKGRFTISRDNAKNPVYLQKNSLKPEDTAVYYSAAAYYQDNFWWYYYWGQGTQVNVSS", "polyreactivity (PSR sort gate)": "high polyreactivity"},
      {"sequence": "QVQLVESGGGLVQAGGSLRLSCAASGGTFEYYPMGWYRQAPGKETEMVAGITWGGVSTYYADSVKGRFTLSRDTAKNTVYLQMNSLKPEDTSVFYCAAAYSQDNVWWYYYWGQGTQVTVSS", "polyreactivity (PSR sort gate)": "high polyreactivity"},
      {"sequence": "QVQLVESGGGLVQAGGSLRLSCAASGGTFFLYAMGWYRQAPGTERELVADISSGDSTNYADSVKGRFTISRDNAKNTVYLQMNSLKPEDTAVYYCAADGKLEYVNGYNLYYWGQGTQVTVSS", "polyreactivity (PSR sort gate)": "low polyreactivity"},
      {"sequence": "QVQLVESGGGLVQAGGSLRLSCAASGGTFFTNAMGWYRHAPGKERELVAVITGSGGRTYYADSVKGRFTISRDNAMNTVYLQMNSLKPEDTAVYYCAARGYSWGQGTQVTLSS", "polyreactivity (PSR sort gate)": "high polyreactivity"},
      {"sequence": "QVQLVESGGGLVQAGGSLRLSCAASGGTFFWYGMGWYRQAPGKERELVAAITSGGSTYYADSVKGRFTISRDNAKNTVYLQMNSLKPEDTAVYYCATENRFRGWYPTRSSLPYEYWGQGTQVTVSS", "polyreactivity (PSR sort gate)": "low polyreactivity"},
      {"sequence": "QVQLVESGGGLVQAGGSLRLSCAASGGTFGGYAMGWYRQAPGKERELVAVISQSGGTTYYADSVKGRFTISRDNAKNTVYLQMNSLKPEDTAVYYCNAYTYYKRFGYWGQGTQVTVSS", "polyreactivity (PSR sort gate)": "high polyreactivity"},
      {"sequence": "QVQLVESGGGLVQAGGSLRLSCAASGGTFGHYTMGWYRQAPGKERELVAAISGSGGTTYYADSVKGRFTISRDNAKNTVYLQINSLKPEDTAVYFCNKGIPTRSVRSYDYWGQGTKVTVSS", "polyreactivity (PSR sort gate)": "high polyreactivity"},
      {"sequence": "QVQLVESGGGLVQAGGSLRLSCAASGGTFGRYAMGWYRQAPGKERELFAAITWGGTRTYYADSVKGRFTISRDNAKNTVYLQMNSLKPEDTAGYYCAAYSNYPVFDYNYWGQGTQVTVSS", "polyreactivity (PSR sort gate)": "high polyreactivity"}
    ]}
  ]
}
